Laboratory results: US20140328819

T1: soluble tissue factor (sTF), P13726
T1 chain: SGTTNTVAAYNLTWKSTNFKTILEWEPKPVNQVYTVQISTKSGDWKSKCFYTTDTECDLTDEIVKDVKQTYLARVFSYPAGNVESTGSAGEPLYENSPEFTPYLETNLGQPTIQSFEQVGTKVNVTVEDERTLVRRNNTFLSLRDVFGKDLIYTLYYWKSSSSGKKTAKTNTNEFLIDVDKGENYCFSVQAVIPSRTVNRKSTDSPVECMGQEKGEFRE


Experiments:
[1] = system: FIX/cFXI1/XTEN (pCW0735), FIX-KLTRAET-XTEN_AE864
[2] = system: FIX/cFXI2/XTEN (pCW0736), FIX-DFTRVVG-XTEN_AE864
[3] = system: FIX/cFXI3/XTEN (pCW0737), FIX-/FXI/-XTEN_AE864
[4] = molecular target: T1, soluble tissue factor (sTF), P13726

Row | Molecule | Concentration by Activity (ng/ml), aPTT based factor assay [1] [ng/mL] | Fraction Active (activity / ELISA) [1] [%] | clotting activity (aPTT based factor assay), fold enhancement by the FXI cleavage site [1] | Concentration by Activity (ng/ml), aPTT based factor assay [2] [ng/mL] | Fraction Active (activity / ELISA) [2] [%] | clotting activity (aPTT based factor assay), fold enhancement by the FXI cleavage site [2] | Concentration by Activity (ng/ml), aPTT based factor assay [3] [ng/mL] | Fraction Active (activity / ELISA) [3] [%] | clotting activity (aPTT based factor assay), fold enhancement by the FXI cleavage site [3] | soluble tissue factor (sTF) induced clotting in FVII null plasma (Stago STA-Clot FVIIa activity assay kit) [4]
1 | FXI protease (FXIa) of the aPTT assay plasma | 7 | 30 | In all three cases the presence of a FXI cleavage site enhanced the clotting activity by greater than 30-fold | 9 | 34 | In all three cases the presence of a FXI cleavage site enhanced the clotting activity by greater than 30-fold | 11 | 40 | In all three cases the presence of a FXI cleavage site enhanced the clotting activity by greater than 30-fold | –
2 | FVIIa-AE288 (activated FVII-AE288, AC398) (protein) AVFVTQEEAHGVLHRRRRANAFLEELRPGSLERECKEEQCSFEEAREIFKDAERTKLFWISYSDGDQCASSPCQNGGSCKDQLQSYICFCLPAFEGRNCETHKDDQLICVNENGGCEQYCSDHTGTKRSCRCHEGYSLLADGVSCTPTVEYPCGKIPILEKRNASKPQGRIVGGKVCPKGECPWQVLLLVNGAQLCGGTLINTIWVVSAAHCFDKIKNWRNLIAVLGEHDLSEHDGDEQSRRVAQVIIPSTYVPGTTNHDIALLRLHQPVVLTDHVVPLCLPERTFSERTLAFVRFSLVSGWGQLLDRGATALELMVLNVPRLMTQDCLQQSRKVGDSPNITEYMFCAGYSDGSKDSCKGDSGGPHATHYRGTWYLTGIVSWGQGCATVGHFGVYTRVSQYIEWLQKLMRSEPRPGVLLRAPFPGSPGTSESATPESGPGSEPATSGSETPGTSESATPESGPGSEPATSGSETPGTSESATPESGPGTSTEPSEGSAPGSPAGSPTSTEEGTSESATPESGPGSEPATSGSETPGTSESATPESGPGSPAGSPTSTEEGSPAGSPTSTEEGTSTEPSEGSAPGTSESATPESGPGTSESATPESGPGTSESATPESGPGSEPATSGSETPGSEPATSGSETPGSPAGSPTSTEEGTSTEPSEGSAPGTSTEPSEGSAPGSEPATSGSETPGTSESATPESGPGTSTEPSEGSAPGSSS | – | – | – | – | – | – | – | – | – | an activity equivalent to 112 U/ml of FVIIa activity
